{"source": "paper PMC3338484", "system": "T1, Nc1nc2c(c(=O)[nH]1)N1CN(c3ccc(C(=O)NC(CCC(=O)O)C(=O)O)cc3)CC1CN2", "T1 construct": "hexa-histidine tag with TEV protease site (N, cleaved yes); made in house; host or cells: E. coli BL21 (DE3)", "test": "FolD enzyme assay (absorbance at 350 nm), IC50 determination", "format": "biochemical, Pseudomonas aeruginosa", "conditions": "other: 1 nM PaFolD, end-point assay; other substrate saturating; mean ± SD (n = 4); pH 7.9", "description": "Enzyme activity was assayed by measuring the absorbance at 350 nm of the intermediate product in the reaction, N ^5,N ^10-methenyl-THF, following acidification of the reaction and consequent reconversion of the final product formyl-THF to the intermediate. Following optimization of the assay buffer and determination of the enzyme linearity, assays were carried out at room temperature in a 50 µL reaction volume containing 25 mM bicine, pH 7.9, 1 mM dithiothreitol, 0.05% CHAPS, 0.2 mg mL^−1 BSA, 1 nM recombinant FolD, […] NADP^+ and 35 µM N ^5,N ^10-methylene-THF. Michaelis constants for the two substrates (NADP^+ and N ^5,N ^10-methylene-THF) were determined in an end-point assay, using these buffer and enzyme conditions.\nThe HTS was performed with a compound collection of 79,029 diverse structures based around 4000 chemical scaffolds. All compounds were dissolved in 100% DMSO to a concentration of 3 mM. Single point inhibition assays were carried out at room temperature in clear, flat bottom, polystyrene, 384-well plates (Matrix). Each assay was performed in a 50 µL reaction volume as described above. […] The FolD assay was run at room temperature for 20 min and the signal was allowed to develop for 10 min before the absorbance of each well was read at 350 nm using an EnVision multilabel plate reader (PerkinElmer Life Sciences). […]"}
{"substance": "PaFolD (Pseudomonas aeruginosa PAO1)", "values": [{"measurement": "Km", "value": "26 ± 4", "unit": "µM"}]}
